Legend:
[1] = target: reconstituted Nclk (GST-p25/GST-Cdk5 complex) [GST: P08515]; test: cell-based or functional assay
[2] = tested on: T1, GST-C53 (SEQ ID NO 6)
T1 sequence: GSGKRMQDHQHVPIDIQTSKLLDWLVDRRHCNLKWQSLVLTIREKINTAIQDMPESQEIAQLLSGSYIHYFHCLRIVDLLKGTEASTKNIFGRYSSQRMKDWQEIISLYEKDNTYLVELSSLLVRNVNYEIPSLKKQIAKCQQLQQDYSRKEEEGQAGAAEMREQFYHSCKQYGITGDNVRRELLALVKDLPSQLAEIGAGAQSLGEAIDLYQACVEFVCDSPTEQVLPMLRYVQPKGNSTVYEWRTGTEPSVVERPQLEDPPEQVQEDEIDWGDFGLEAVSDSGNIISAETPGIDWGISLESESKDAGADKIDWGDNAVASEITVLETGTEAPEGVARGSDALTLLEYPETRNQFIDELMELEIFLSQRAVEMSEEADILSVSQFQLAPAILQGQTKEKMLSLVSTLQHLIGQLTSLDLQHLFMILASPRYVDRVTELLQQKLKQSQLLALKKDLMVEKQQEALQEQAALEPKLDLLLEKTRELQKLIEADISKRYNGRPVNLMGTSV

[3] = tested on: T2, GST-C48 (SEQ. ID NO 4)
T2 sequence: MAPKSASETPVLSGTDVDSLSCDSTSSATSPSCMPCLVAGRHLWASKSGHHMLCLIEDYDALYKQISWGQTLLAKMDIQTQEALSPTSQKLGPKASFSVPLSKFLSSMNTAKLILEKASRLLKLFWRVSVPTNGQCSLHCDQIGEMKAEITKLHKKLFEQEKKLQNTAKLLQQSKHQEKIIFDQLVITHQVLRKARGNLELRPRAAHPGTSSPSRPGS

inhibition of Cdk5 kinase activity [1] [%]	Substance	phosphorylation by reconstituted Nclk (autoradiograph, Mg[γ-32P]ATP) [2]	phosphorylation by reconstituted Nclk (autoradiograph, Mg[γ-32P]ATP) [3]
< 20	GST-C48 (SEQ. ID NO 4) (from UniProt Q9JLH5 1686-1903)	–	–
< 20	GST-C53 (SEQ ID NO 6) (from UniProt Q9JLH7 1-504)	–	–
–	reconstituted Nclk (GST-p25/GST-Cdk5 complex)	the SEQ ID NO 4 (C48) and SEQ ID NO 6 (C53) proteins, but not the SEQ ID NO 2 (C42) protein, were phosphorylated by Cdk5 kinase	the SEQ ID NO 4 (C48) and SEQ ID NO 6 (C53) proteins, but not the SEQ ID NO 2 (C42) protein, were phosphorylated by Cdk5 kinase

— patent US6753413
